# Experimental data from the supplement of paper PMC10126150.
# ± gives the standard deviation of the averaged measurements.
# Test system: ATP
# Test: switch fluorescence ratio, 500 uM ATP over buffer (Cy3 cluster intensity, sum of 5 cycles each) (fold (ratio)); higher = stronger signal-on switching upon ATP binding; sequences stand for … in TCGTCGGCAGCGTCAGATGTGTATAAGAGACAGTTTTTTTTTTTTTTTTTTTTTTTTT…TC
# Conditions: aptamer strand: ATP DNA aptamer (quencher-CACCTGGGGGAGTATTGCGGAGGAAGG + anchor), 100 nM annealed; ATP concentration: 500 uM
# In short: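 Per cluster, summed Cy3 intensity from the target cycles was divided by that from the buffer cycles to give the fluorescence ratio, then averaged per switch-domain sequence. Clusters outside 100-1000 RFU were excluded. The Cy3-labelled switching-strand clusters, on a modified Illumina MiSeq flow-cell, were annealed to 100 nM quencher-labelled ATP aptamer and imaged in selection buffer, then after 15 min with 500 uM ATP at 22 °C, for five cycles with NaOH stripping and re-annealing between them.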
# 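Further: ATP exposure 15 min at 22 °C before imaging.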
row,Sequence,switch fluorescence ratio
1,AACGTTGGAC,1.1 ± 0.029
2,AACGTTGGGC,1.03 ± 0.059
3,AACGTTGGTT,1.01 ± 0.012
4,AACGTTGTTG,0.976 ± 0.044
5,AACTAAGGGA,0.9949 ± 0.0068
6,AACTAAGTGG,0.967 ± 0.017
7,AACTACTGTG,1.03 ± 0.056
8,AACTAGACCT,1.42 ± 0.019
9,AACTAGGTCG,0.974 ± 0.058
10,AACTATAAGA,1.06 ± 0.1
11,AACTATGAAC,1.03 ± 0.029
12,AACTATTAGA,0.952 ± 0.018
13,AACTCAGGCG,1.039 ± 0.0066
14,AACTCCACGA,1.26 ± 0.32
15,AACTCCAGGT,1.2 ± 0.011
16,AACTCGGTCC,1 ± 0.061
17,AACTCGGTCG,1.04 ± 0.051
18,AACTCTCGGG,1 ± 0.014
19,AACTCTGGTT,0.968 ± 0.048
20,AACTCTGTCT,1 ± 0.032
21,AACTGAGGGA,1.022 ± 0.0069
22,AACTGCTATC,1.22 ± 0.036
23,AACTGGAACT,1.03 ± 0.032
24,AACTGTTGG,0.9895 ± 0.006
25,AACTTAAGGG,1.003 ± 0.0092

row,Sequence,switch fluorescence ratio
1,AACTTAATG,0.9926 ± 0.0025
2,AACTTACACG,1.2 ± 0.018
3,AACTTATCGG,1.01 ± 0.036
4,AACTTGGGGG,1.021 ± 0.0048
5,AACTTGTGTG,0.989 ± 0.042
6,AACTTTGGGG,1.01 ± 0.068
7,AAGAAAGGCT,0.982 ± 0.033
8,AAGAAAGTCT,0.995 ± 0.068
9,AAGAAATGTA,1.013 ± 0.0063
10,AAGAAATTGG,0.9446 ± 0.0027
11,AAGAACGGTA,1.06 ± 0.043
12,AAGAAGAGGG,1.02 ± 0.021
13,AAGAAGGGAA,1.004 ± 0.0068
14,AAGAAGTTGG,0.985 ± 0.038
15,AAGAATATAT,0.991 ± 0.018
16,AAGAATCTGC,0.985 ± 0.051
17,AAGAATGTG,0.9474 ± 0.0022
18,AAGAATTTTT,1 ± 0.023
19,AAGACAGGCC,1.03 ± 0.014
20,AAGACGAATT,1.01 ± 0.058
21,AAGACGTGGA,0.9993 ± 0.0064
22,AAGACGTGGT,0.992 ± 0.008
23,AAGACTGAGC,1.033 ± 0.0071
24,AAGACTTAT,1.01 ± 0.053
25,AAGACTTTGT,1 ± 0.024

row,Sequence,switch fluorescence ratio
1,AAGAGAAGTT,0.9938 ± 0.0088
2,AAGAGAATGG,0.984 ± 0.052
3,AAGAGACAGA,1.25 ± 0.066
4,AAGAGAGTTT,0.9837 ± 0.00066
5,AAGAGCCAAA,0.9735 ± 0.0097
6,AAGAGCGGAC,1.11 ± 0.047
7,AAGAGCGGGG,0.989 ± 0.043
8,AAGAGGACGC,1 ± 0.066
9,AAGAGGCGGT,1.01 ± 0.022
10,AAGAGGGCGT,1.012 ± 0.0064
11,AAGAGGGGG,0.977 ± 0.026
12,AAGAGGTCG,1.02 ± 0.046
13,AAGAGGTGCA,0.989 ± 0.034
14,AAGAGGTTAC,0.973 ± 0.049
15,AAGAGTCTT,0.963 ± 0.042
16,AAGAGTGGGG,1.02 ± 0.049
17,AAGAGTTCTG,1 ± 0.011
18,AAGAGTTGAC,0.947 ± 0.059
19,AAGATAACCT,1.87 ± 0.23
20,AAGATACGCT,1.06 ± 0.065
21,AAGATATCTG,1.01 ± 0.032
22,AAGATCATGG,0.98235 ± 0.00028
23,AAGATCCGCT,1.13 ± 0.027
24,AAGATGACTA,0.986 ± 0.042
25,AAGATGGGGC,0.998 ± 0.038

row,Sequence,switch fluorescence ratio
1,AAGATGGGGG,0.998 ± 0.033
2,AAGATGGTTA,0.97 ± 0.01
3,AAGATGTTTT,1.01 ± 0.04
4,AAGATTAGTC,0.974 ± 0.041
5,AAGATTGTCG,1.14 ± 0.039
6,AAGATTGTGT,0.9849 ± 0.0017
7,AAGATTTTGA,0.936 ± 0.063
8,AAGATTTTTG,1.01 ± 0.041
9,AAGCAAAGGT,1.02 ± 0.027
10,AAGCAAGGGA,1.065 ± 0.01
11,AAGCAGATAG,1.46 ± 0.048
12,AAGCAGTCGA,1.09 ± 0.015
13,AAGCATCACG,1.07 ± 0.011
14,AAGCCCTACA,1.01 ± 0.03
15,AAGCCGATTC,1.03 ± 0.0068
16,AAGCCGGATG,1.005 ± 0.0095
17,AAGCCGGGGG,0.987 ± 0.019
18,AAGCCTTTAG,0.974 ± 0.047
19,AAGCGAACAT,1.08 ± 0.076
20,AAGCGAGG,0.9872 ± 0.0032
21,AAGCGCGAGG,1.03 ± 0.022
22,AAGCGGCGGG,1.01 ± 0.019
23,AAGCGGGAGC,1.026 ± 0.0049
24,AAGCGGTATC,1.03 ± 0.021
25,AAGCGGTCCG,1.02 ± 0.025
